Assay results reported in the supplement of paper PMC9732359.
± gives the uncertainty stated by the source.

Assay: protein stability index of a GFP-peptide fusion (yeast GPS) (PSI 1-4); higher = more stable; sorted into four equal gates, so the index is relative within each strain
Outline: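 Peptides tiling yeast proteins in 17-residue segments were fused downstream of GFP, with Cherry expressed from the same plasmid. As a pooled library in yeast, mid-log cultures grown in leucine-free medium were sorted into four equal gates by GFP/Cherry fluorescence ratio. Gate plasmids were PCR-amplified and Illumina-sequenced, and barcodes linked reads to strains. Each peptide received a protein stability index equal to the sum of each gate's read frequency times its gate number.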

Sequence: IAYGASQLLLERLMISS [RET1]
- protein stability index (doa10∆): 1.75 ± 0.092
- protein stability index (pdr5∆): 1.94 ± 0.073
- protein stability index (san1∆): 2 ± 0.16
- protein stability index (ubr1∆): 1.39 ± 0.069

Sequence: TTQIDLFRIFSMSEEFK [BRR2]
- protein stability index (doa10∆): 2.4 ± 0.14
- protein stability index (pdr5∆): 3.12 ± 0.1
- protein stability index (san1∆): 2.49 ± 0.23
- protein stability index (ubr1∆): 3.12 ± 0.073

Sequence: KEPRLVIVTDPRLDAQA [RPS0B]
- protein stability index (doa10∆): 3.41 ± 0.25
- protein stability index (pdr5∆): 3.42 ± 0.17
- protein stability index (ubr1∆): 2.61 ± 0.16

Sequence: IRRTFNIVNDFTPEEEA [SKP1]
- protein stability index (doa10∆): 2.71 ± 0.099
- protein stability index (pdr5∆): 3.28 ± 0.05
- protein stability index (san1∆): 3.16 ± 0.05
- protein stability index (ubr1∆): 3.08 ± 0.041

Sequence: DNFDYFNQRDGEHEKSN [MED1]
- protein stability index (doa10∆): 2.86 ± 0.098
- protein stability index (pdr5∆): 3 ± 0.2
- protein stability index (san1∆): 3.19 ± 0.15
- protein stability index (ubr1∆): 3.56 ± 0.14

Sequence: IAQSKKKNNKIKESSKK [SRP21]
- protein stability index (doa10∆): 3.09 ± 0.1
- protein stability index (pdr5∆): 2.96 ± 0.087
- protein stability index (san1∆): 3.01 ± 0.072
- protein stability index (ubr1∆): 3.16 ± 0.063

Sequence: KNLQRESCEDILDLKEF [RTT102]
- protein stability index (doa10∆): 3.59 ± 0.21
- protein stability index (pdr5∆): 3.31 ± 0.13
- protein stability index (san1∆): 3.17 ± 0.28
- protein stability index (ubr1∆): 3.45 ± 0.16

Sequence: SNDPDVNNTRRRVYNRV [BRN1]
- protein stability index (doa10∆): 2.81 ± 0.14
- protein stability index (pdr5∆): 3.52 ± 0.19
- protein stability index (san1∆): 3 ± 0.14
- protein stability index (ubr1∆): 3.69 ± 0.24

Sequence: SKLMPVLKSSVYEYVIA [RPC82]
- protein stability index (doa10∆): 1.42 ± 0.061
- protein stability index (pdr5∆): 1.57 ± 0.059
- protein stability index (san1∆): 1.25 ± 0.1
- protein stability index (ubr1∆): 1.46 ± 0.056

Sequence: YIKYNILLTSISRERDL [SRP68]
- protein stability index (doa10∆): 1.69 ± 0.07
- protein stability index (pdr5∆): 1.58 ± 0.062
- protein stability index (san1∆): 1.83 ± 0.12
- protein stability index (ubr1∆): 1.91 ± 0.094

Sequence: QKRQLHDISKTETSNED [SNU114]
- protein stability index (doa10∆): 3.06 ± 0.049
- protein stability index (pdr5∆): 2.97 ± 0.045
- protein stability index (san1∆): 2.98 ± 0.039
- protein stability index (ubr1∆): 3.044 ± 0.03

Sequence: VLADALNAINNAEKTGK [RPS22A]
- protein stability index (doa10∆): 2.92 ± 0.056
- protein stability index (pdr5∆): 3.27 ± 0.059
- protein stability index (san1∆): 2.67 ± 0.06
- protein stability index (ubr1∆): 2.97 ± 0.049

Sequence: RHLVNRGREEAASFKKL [PRE10]
- protein stability index (doa10∆): 3.07 ± 0.059
- protein stability index (pdr5∆): 3.2 ± 0.1
- protein stability index (san1∆): 3 ± 0.084
- protein stability index (ubr1∆): 2.85 ± 0.089

Sequence: IALEGYRLDIIESALKS [RPN2]
- protein stability index (pdr5∆): 1.49 ± 0.15
- protein stability index (ubr1∆): 1.25 ± 0.15

Sequence: SKLKLKNLLRKNLSIDE [ECM29]
- protein stability index (doa10∆): 1.71 ± 0.086
- protein stability index (pdr5∆): 1.47 ± 0.054
- protein stability index (san1∆): 1.46 ± 0.098
- protein stability index (ubr1∆): 1.76 ± 0.062

Sequence: HVLKTVDYGGAEWSLVR [SNU114]
- protein stability index (doa10∆): 3.09 ± 0.19
- protein stability index (pdr5∆): 3.42 ± 0.21
- protein stability index (san1∆): 3.11 ± 0.18
- protein stability index (ubr1∆): 1.31 ± 0.29

Sequence: QSEHLEAVVDQDVQRTC [FAS1]
- protein stability index (doa10∆): 3.47 ± 0.25
- protein stability index (pdr5∆): 3.36 ± 0.14
- protein stability index (san1∆): 3.49 ± 0.094
- protein stability index (ubr1∆): 3.38 ± 0.095

Sequence: IGQLIGEVMKELSEEKY [RPT4]
- protein stability index (doa10∆): 3.27 ± 0.063
- protein stability index (pdr5∆): 3.42 ± 0.076
- protein stability index (san1∆): 3.44 ± 0.067
- protein stability index (ubr1∆): 3.27 ± 0.042

Sequence: ISEVMEDRNQRIKEMYW [FAS1]
- protein stability index (doa10∆): 3.07 ± 0.16
- protein stability index (pdr5∆): 3.3 ± 0.17
- protein stability index (san1∆): 2.99 ± 0.12
- protein stability index (ubr1∆): 2.97 ± 0.12

Sequence: SIRLKVPPTIAQFQYTL [RPL8A]
- protein stability index (doa10∆): 2.09 ± 0.047
- protein stability index (pdr5∆): 2.36 ± 0.04
- protein stability index (san1∆): 1.93 ± 0.064
- protein stability index (ubr1∆): 2.19 ± 0.035

Sequence: LGLGIAFAGSKNDEVLG [RPN1]
- protein stability index (doa10∆): 3.09 ± 0.3
- protein stability index (pdr5∆): 2.94 ± 0.15
- protein stability index (san1∆): 2.81 ± 0.26
- protein stability index (ubr1∆): 3.04 ± 0.14

Sequence: SMVYSNVGELIEKNVME [RRP4]
- protein stability index (doa10∆): 2.06 ± 0.052
- protein stability index (pdr5∆): 2.66 ± 0.053
- protein stability index (san1∆): 2.55 ± 0.056
- protein stability index (ubr1∆): 2.03 ± 0.048

Sequence: NYTDLIWFPEDFISPEL [MED1]
- protein stability index (doa10∆): 2.56 ± 0.058
- protein stability index (pdr5∆): 2.61 ± 0.058
- protein stability index (san1∆): 2.82 ± 0.067
- protein stability index (ubr1∆): 2.56 ± 0.032

Sequence: PSENLLNIRIQTYGETT [RPC19]
- protein stability index (doa10∆): 1.85 ± 0.27
- protein stability index (pdr5∆): 1.18 ± 0.13
- protein stability index (ubr1∆): 1.33 ± 0.26

Sequence: APNHSPEIDNLDDLVVL [RRP6]
- protein stability index (doa10∆): 3.16 ± 0.11
- protein stability index (pdr5∆): 3.51 ± 0.11
- protein stability index (san1∆): 3 ± 0.15
- protein stability index (ubr1∆): 2.71 ± 0.088

Sequence: SLKGLQSKLKDVVEYLD [RPN8]
- protein stability index (doa10∆): 2.92 ± 0.083
- protein stability index (pdr5∆): 2.27 ± 0.055
- protein stability index (san1∆): 2.71 ± 0.069
- protein stability index (ubr1∆): 2.48 ± 0.048
